The supplement of paper PMC7877785
± gives the uncertainty stated by the source.

Experiment: self-splicing fitness, log relative to wild type (ln ratio); higher = more splicing; Tetrahymena group I intron in knt gene, E. coli kanamycin selection, DiMSum; sequences stand for … in CUCUCU…GGAGGGAAAAGUUAUCAGGCAUGCACCUGGUAGCUAGUCUUUAAACCAAUAGAUUGCAUCGGUUUAAAAGGCAAGACCGUCAAAUUGCGGGAAAGGGGUCAACAGCCGUUCAGUACCAAGUCUCAGGGGAAACUUUGAGAUGGCCUUGCAAAGGGUAUGGUAAUAAGCUGACGGACAUGGUCCUAACCACGCAGCCAAGUCCUAAGUCAACAGAUCUUCUGUUGAUAUGGAUGCAGUUCACAGACUAAAUGUCGGUCGGGGAAGAUGUAUUCUUCUCAUAAGAUAUAGUCGGACCUCUCCUUAAUGGGAGCUAGCGGAUGAAGUGAUGCAACACUGGAGCCGCUGGGAACUAAUUUGUAUGCGAAAGUAUAUUGAUUAGUUUUGGAGUACUCGUGGUCG
Method in brief: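 The eight P1ex-region nucleotides of an intron in the knt kanamycin-resistance gene on pET-22b(+) were all randomised and the library put into E. coli BL21(DE3). Six replicate transformations were grown overnight at 37°C or 30°C on LB agar with or without 25 μg/mL kanamycin, together with 100 μg/mL carbenicillin, 50 μM IPTG and 0.2% rhamnose. Colonies were pooled and amplicon-sequenced on an Illumina HiSeq 2500. Fitness from DiMSum is the error-weighted combination of wild-type-normalised replicate fold changes, kanamycin over none.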

| Sequence | self-splicing fitness (ln) (30 °C) | self-splicing fitness (ln) (37 °C) |
| --- | --- | --- |
| UGAGAGCAAUAUUACGCAAG | -3.21 ± 0.32 | -2.74 ± 0.44 |
| UGAGAGCAAUAUUACGCCGU | -3.58 ± 0.47 | – |
| UGAGAGCAAUAUUACGCUCG | – | -1.32 ± 0.45 |
| UGAGAGCAAUAUUACGCUGC | -2.67 ± 0.42 | – |
| UGAGAGCAAUAUUACGGCUU | -4.13 ± 0.42 | – |
| UGAGAGCAAUAUUACGGGUA | -2.66 ± 0.37 | – |
| UGAGAGCAAUAUUACGUAUA | -3.03 ± 0.42 | -1.66 ± 0.35 |
| UGAGAGCAAUAUUACGUCGA | -2.82 ± 0.39 | -3.1 ± 0.47 |
| UGAGAGCAAUAUUACGUGAU | -3.97 ± 0.46 | -2.72 ± 0.38 |
| UGAGAGCAAUAUUACGUUAU | -2.88 ± 0.23 | -2.89 ± 0.43 |
| UGAUAGCAAUAUUACGAAGC | -3.24 ± 0.32 | – |
| UGAUAGCAAUAUUACGCAUA | -2.13 ± 0.19 | -0.977 ± 0.16 |
| UGAUAGCAAUAUUACGCAUC | – | -1.53 ± 0.49 |
| UGAUAGCAAUAUUACGCCGU | -4.2 ± 0.43 | -2.01 ± 0.2 |
| UGAUAGCAAUAUUACGCGUC | -3.08 ± 0.31 | – |
| UGAUAGCAAUAUUACGGAUA | -3.57 ± 0.25 | -1.6 ± 0.19 |
| UGAUAGCAAUAUUACGGGGC | -3.5 ± 0.29 | – |
| UGAUAGCAAUAUUACGGUAG | -2.38 ± 0.2 | -1.12 ± 0.17 |
| UGAUAGCAAUAUUACGGUUC | – | -1.46 ± 0.27 |
| UGAUAGCAAUAUUACGUAGA | -2.3 ± 0.15 | -0.984 ± 0.17 |
| UGAUAGCAAUAUUACGUGAG | -0.705 ± 0.05 | -0.543 ± 0.087 |
| UGAUAGCAAUAUUACGUGCG | -0.579 ± 0.1 | -0.921 ± 0.087 |
| UGAUAGCAAUAUUACGUGUU | -3.87 ± 0.19 | -2.6 ± 0.2 |
| UGAUAGCAAUAUUACGUUCA | -0.43 ± 0.087 | 0.075 ± 0.093 |
| UGAUAGCAAUAUUACGUUGC | -2.16 ± 0.17 | -2.32 ± 0.28 |
| UGAUAGCAAUAUUACGUUUG | -1.26 ± 0.073 | 0.0201 ± 0.099 |

| Sequence | self-splicing fitness (ln) (30 °C) | self-splicing fitness (ln) (37 °C) |
| --- | --- | --- |
| UGCAAGCAAUAUUACGACGC | -1.44 ± 0.4 | -0.865 ± 0.24 |
| UGCAAGCAAUAUUACGACUA | 0.0901 ± 0.093 | 0.525 ± 0.11 |
| UGCAAGCAAUAUUACGAGUA | -0.888 ± 0.083 | 0.181 ± 0.083 |
| UGCAAGCAAUAUUACGAUGA | -0.161 ± 0.093 | 0.0415 ± 0.097 |
| UGCAAGCAAUAUUACGCACC | -1.89 ± 0.24 | -1.25 ± 0.32 |
| UGCAAGCAAUAUUACGCAUA | -2.59 ± 0.2 | -2.33 ± 0.2 |
| UGCAAGCAAUAUUACGCCCC | -0.548 ± 0.19 | -0.556 ± 0.32 |
| UGCAAGCAAUAUUACGCGGG | -3.73 ± 0.27 | -2.42 ± 0.22 |
| UGCAAGCAAUAUUACGCGUA | -1.45 ± 0.18 | -1.57 ± 0.17 |
| UGCAAGCAAUAUUACGCUUC | -3.15 ± 0.24 | -3.33 ± 0.32 |
| UGCAAGCAAUAUUACGGAAU | -2.88 ± 0.19 | -2.45 ± 0.2 |
| UGCAAGCAAUAUUACGGAUC | -3.09 ± 0.17 | -2.38 ± 0.16 |
| UGCAAGCAAUAUUACGGGCA | -1.4 ± 0.11 | -0.815 ± 0.096 |
| UGCAAGCAAUAUUACGGGCG | -1.41 ± 0.087 | -0.699 ± 0.1 |
| UGCAAGCAAUAUUACGGGUC | -3.11 ± 0.24 | -2.11 ± 0.21 |
| UGCAAGCAAUAUUACGGUUC | -2.93 ± 0.19 | -1.92 ± 0.17 |
| UGCAAGCAAUAUUACGUAGC | -3.54 ± 0.37 | -2.48 ± 0.41 |
| UGCAAGCAAUAUUACGUAUG | -3.05 ± 0.16 | -0.321 ± 0.1 |
| UGCAAGCAAUAUUACGUCAA | -2.14 ± 0.098 | -0.795 ± 0.073 |
| UGCAAGCAAUAUUACGUCUA | -0.304 ± 0.047 | 0.371 ± 0.062 |
| UGCAAGCAAUAUUACGUUAG | -2.79 ± 0.14 | -2.02 ± 0.15 |
| UGCCAGCAAUAUUACGACAC | -2.55 ± 0.35 | -2.68 ± 0.38 |
| UGCCAGCAAUAUUACGAGAU | -3.75 ± 0.26 | -2.32 ± 0.21 |
| UGCCAGCAAUAUUACGAGUG | -1.32 ± 0.064 | -0.537 ± 0.079 |
| UGCCAGCAAUAUUACGAUAA | -1.88 ± 0.14 | -1.19 ± 0.15 |
| UGCCAGCAAUAUUACGCAAU | -4.51 ± 0.2 | -2.59 ± 0.13 |

| Sequence | self-splicing fitness (ln) (30 °C) | self-splicing fitness (ln) (37 °C) |
| --- | --- | --- |
| UGCCAGCAAUAUUACGCACC | -2.19 ± 0.28 | -1.32 ± 0.35 |
| UGCCAGCAAUAUUACGCAGC | – | -2.15 ± 0.42 |
| UGCCAGCAAUAUUACGCGUG | -1.71 ± 0.086 | -0.381 ± 0.089 |
| UGCCAGCAAUAUUACGCUGC | -3.85 ± 0.31 | -2.47 ± 0.28 |
| UGCCAGCAAUAUUACGCUGG | -3.35 ± 0.24 | -2.63 ± 0.28 |
| UGCCAGCAAUAUUACGCUUA | -0.602 ± 0.063 | 0.791 ± 0.084 |
| UGCCAGCAAUAUUACGGCAG | -2.25 ± 0.093 | -1.15 ± 0.1 |
| UGCCAGCAAUAUUACGGCUC | -2.89 ± 0.21 | -1.48 ± 0.23 |
| UGCCAGCAAUAUUACGGGAC | -3.51 ± 0.34 | -1.95 ± 0.3 |
| UGCCAGCAAUAUUACGGGAU | -3.16 ± 0.13 | -2.44 ± 0.18 |
| UGCCAGCAAUAUUACGGGCA | -3.85 ± 0.27 | -2.48 ± 0.24 |
| UGCCAGCAAUAUUACGGGGU | -3.57 ± 0.21 | -2.48 ± 0.2 |
| UGCCAGCAAUAUUACGUAAU | -2.36 ± 0.14 | -2.16 ± 0.18 |
| UGCCAGCAAUAUUACGUAUC | -3.22 ± 0.19 | -3.05 ± 0.28 |
| UGCCAGCAAUAUUACGUCGU | -2.68 ± 0.14 | -1.9 ± 0.15 |
| UGCCAGCAAUAUUACGUGUA | -1.26 ± 0.058 | -0.551 ± 0.059 |
| UGCCAGCAAUAUUACGUUCU | -2.37 ± 0.17 | -1.23 ± 0.14 |
| UGCCAGCAAUAUUACGUUUA | -2.56 ± 0.086 | -1.51 ± 0.072 |
| UGCGAGCAAUAUUACGAAAU | -2.85 ± 0.18 | -2.65 ± 0.38 |
| UGCGAGCAAUAUUACGAACG | -1.07 ± 0.14 | -1.05 ± 0.16 |
| UGCGAGCAAUAUUACGAAGC | – | -2.3 ± 0.42 |
| UGCGAGCAAUAUUACGAUAU | – | -2.61 ± 0.36 |
| UGCGAGCAAUAUUACGAUCA | 0.0986 ± 0.13 | 0.104 ± 0.14 |
| UGCGAGCAAUAUUACGAUCG | -2.97 ± 0.27 | -1.38 ± 0.17 |
| UGCGAGCAAUAUUACGAUUC | -2.7 ± 0.23 | – |
| UGCGAGCAAUAUUACGCACA | -1.31 ± 0.22 | -2.16 ± 0.28 |

| Sequence | self-splicing fitness (ln) (30 °C) | self-splicing fitness (ln) (37 °C) |
| --- | --- | --- |
| UGCGAGCAAUAUUACGCAGC | – | -1.49 ± 0.37 |
| UGCGAGCAAUAUUACGCAUA | -3.48 ± 0.43 | -3 ± 0.36 |
| UGCGAGCAAUAUUACGCCAG | -4.1 ± 0.42 | – |
| UGCGAGCAAUAUUACGCCUU | – | -1.7 ± 0.38 |
| UGCGAGCAAUAUUACGCGAA | -3.08 ± 0.19 | -2.19 ± 0.19 |
| UGCGAGCAAUAUUACGCGGA | -2.41 ± 0.28 | -2.09 ± 0.31 |
| UGCGAGCAAUAUUACGCGUA | -4.01 ± 0.32 | -1.6 ± 0.14 |
| UGCGAGCAAUAUUACGCUAU | – | -2.46 ± 0.38 |
| UGCGAGCAAUAUUACGCUUG | -3.11 ± 0.37 | -2.05 ± 0.3 |
| UGCGAGCAAUAUUACGGCCA | -0.517 ± 0.13 | 0.5 ± 0.15 |
| UGCGAGCAAUAUUACGGGCU | -2.97 ± 0.25 | – |
| UGCGAGCAAUAUUACGGGUU | -3.38 ± 0.16 | -2.51 ± 0.16 |
| UGCGAGCAAUAUUACGUAAG | -3.72 ± 0.26 | -2.34 ± 0.28 |
| UGCGAGCAAUAUUACGUAAU | -2.35 ± 0.22 | -1.91 ± 0.24 |
| UGCGAGCAAUAUUACGUCCG | -3.31 ± 0.4 | -0.194 ± 0.31 |
| UGCGAGCAAUAUUACGUCCU | -2.35 ± 0.14 | -0.627 ± 0.15 |
| UGCGAGCAAUAUUACGUGCC | -3.9 ± 0.47 | -2.55 ± 0.33 |
| UGCGAGCAAUAUUACGUGCU | – | -1.79 ± 0.32 |
| UGCGAGCAAUAUUACGUGGA | -3.04 ± 0.23 | -3.49 ± 0.33 |
| UGCGAGCAAUAUUACGUUAA | -2.48 ± 0.29 | -2.45 ± 0.31 |
| UGCGAGCAAUAUUACGUUCC | -2.19 ± 0.18 | -2.66 ± 0.34 |
| UGCGAGCAAUAUUACGUUGA | -3.05 ± 0.27 | -3.53 ± 0.32 |
| UGCUAGCAAUAUUACGACGG | -0.768 ± 0.16 | -0.44 ± 0.18 |
